One series has as its target T1, ELA-Q (not fully specified).
T1 chain: GAAFAGK

Another series concerns the target T2, LAS-Q (not fully specified).
T2 chain: GLGGGAGK

B1: recombinant mouse neutrophil elastase (protein)
chain: SEIVGGRPARPHAWPFMASLQRRGGHFCGATLIARNFVMSAAHCVNGLNFRSVQVVLGAHDLRRQERTRQTFSVQRIFENGFDPSQLLNDIVIIQLNGSATINANVQVAQLPAQGQGVGDRTPCLAMGWGRLGTNRPSPSVLQELNVTVVTNMCRRRVNVCTLVPRRQAGICFGDSGGPLVCNNLVQGIDSFIRGGCGSGLYPDAFAPVAEFADWINSIIRSHNDHLLTHPKDREGRTN
Take B1: the “reversal of FRET-quenched fluorescent signal (cleavage)” value with ELA-Q is “ELA-Q and-to a lesser extent, LAS-Q-are each cleaved by neutrophil elastase”; with LAS-Q, “ELA-Q and-to a lesser extent, LAS-Q-are each cleaved by neutrophil elastase”.

B2: LasA protease of Pseudomonas aeruginosa (secreted, in culture supernatants) (protein)
chain: APPSNLMQLPWRQGYSWQPNGAHSNTGSGYPYSSFDASYDWPRWGSATYSVVAAHAGTVRVLSRCQVRVTHPSGWATNYYHMDQIQVSNGQQVSADTKLGVYASNINTALCEGGSSTGPHLHFSLLYNGAFVSLQGASFGPYRINVGTSNYDNDCRRYYFYNQSAGTTHCAFRPLYNPGLAL
Take B2: in the series with LAS-Q, the “cleavage of LAS-Q by P. aeruginosa culture supernatants (fluorescence) set against LasA content by Western blot” value was “the non-cleaving strains lacked LasA in their supernatant, whereas supernatant from the substrate-cleaving strains contained substantial levels of LasA protein”.

The values are drawn from US20200096514.
